Reference: US20240034757A1 (OXFORD UNIVERSITY INNOVATION, published 2024)

Legend:
CXCL12_HUMAN = CXCL12_HUMAN (human, UniProt P48061 22-89); test: BLI
CXCL13_HUMAN = target: T1, CXCL13_HUMAN (human, UniProt O43927 23-109); test: BLI
T1 sequence: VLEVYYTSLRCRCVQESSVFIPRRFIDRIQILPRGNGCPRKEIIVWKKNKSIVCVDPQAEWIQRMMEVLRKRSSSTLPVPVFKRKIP

CXCL14_HUMAN = target: T2, CXCL14_HUMAN (human, UniProt O95715 35-111); test: BLI
T2 sequence: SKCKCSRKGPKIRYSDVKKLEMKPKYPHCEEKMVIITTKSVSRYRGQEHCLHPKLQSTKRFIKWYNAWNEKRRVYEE

CXCL8_HUMAN [1] = target: T3, CXCL8_HUMAN (human, UniProt P10145 28-99); test: BLI [Cont.]
T3 sequence: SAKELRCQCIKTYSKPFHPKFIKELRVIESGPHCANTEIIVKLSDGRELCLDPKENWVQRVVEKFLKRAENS

CXCL7_HUMAN = target: T4, CXCL7_HUMAN (human, UniProt P02775 59-128); test: yeast surface display FACS re-test; note: test concentration or dose not given here
T4 sequence: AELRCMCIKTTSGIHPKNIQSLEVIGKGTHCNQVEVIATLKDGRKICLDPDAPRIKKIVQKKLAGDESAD

CXCL10_HUMAN [2] = target: T5, CXCL10_HUMAN (human, UniProt P02778 22-98); test: yeast surface display FACS re-test; note: test concentration or dose not given here
T5 sequence: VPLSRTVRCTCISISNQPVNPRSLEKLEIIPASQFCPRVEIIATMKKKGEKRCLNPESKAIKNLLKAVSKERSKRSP

CCL8_HUMAN [3] = target: T6, CCL8_HUMAN (human, UniProt P80075 24-99); test: BLI
T6 sequence (looked up): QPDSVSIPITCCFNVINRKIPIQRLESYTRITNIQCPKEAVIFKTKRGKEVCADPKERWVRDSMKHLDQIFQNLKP

CCL8_HUMAN [4] = target: T6, CCL8_HUMAN; test: cell-based or functional assay
CCL5_HUMAN = target: T7, CCL5_HUMAN (human, UniProt P13501 24-91); test: BLI, evasin immobilised
T7 sequence: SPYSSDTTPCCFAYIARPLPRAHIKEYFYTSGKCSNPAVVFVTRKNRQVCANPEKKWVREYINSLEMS

CCL8_HUMAN [5] = target: T6, CCL8_HUMAN; test: BLI, evasin immobilised
CXCL1_HUMAN = target: T8, CXCL1_HUMAN (human, UniProt P09341 35-107); test: BLI, evasin immobilised
T8 sequence: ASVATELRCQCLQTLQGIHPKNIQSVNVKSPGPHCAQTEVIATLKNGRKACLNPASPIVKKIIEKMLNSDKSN

CXCL8_HUMAN [6] = target: T3, CXCL8_HUMAN; test: BLI, evasin immobilised
CXCL10_HUMAN [7] = target: T5, CXCL10_HUMAN; test: BLI, evasin immobilised
CCL2_HUMAN = CCL2_HUMAN (human, UniProt P13500 24-99); test: BLI, evasin immobilised
CXCL9_HUMAN = target: T9, CXCL9_HUMAN (human, UniProt Q07325 23-125); test: BLI
T9 sequence: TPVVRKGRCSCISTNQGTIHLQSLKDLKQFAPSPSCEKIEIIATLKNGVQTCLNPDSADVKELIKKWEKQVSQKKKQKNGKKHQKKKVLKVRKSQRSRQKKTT

mouse CXCL10 = target: T10, mouse CXCL10 (mouse, UniProt P17515 22-98); test: cell-based or functional assay
T10 sequence: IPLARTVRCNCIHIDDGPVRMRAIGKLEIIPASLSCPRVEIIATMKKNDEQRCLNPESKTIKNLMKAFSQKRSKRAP

mouse CXCL1 = target: T11, mouse CXCL1 (mouse, UniProt P12850 25-96); test: cell-based or functional assay
T11 sequence: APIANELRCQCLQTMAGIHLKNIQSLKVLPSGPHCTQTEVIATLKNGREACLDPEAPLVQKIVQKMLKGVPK

mouse CXCL2 = target: T12, mouse CXCL2 (mouse, UniProt P10889 28-100); test: cell-based or functional assay
T12 sequence: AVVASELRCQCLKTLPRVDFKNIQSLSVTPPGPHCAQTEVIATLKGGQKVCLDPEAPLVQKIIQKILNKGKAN

Chain of CXCL12_HUMAN (P48061 22-89 limits assumed): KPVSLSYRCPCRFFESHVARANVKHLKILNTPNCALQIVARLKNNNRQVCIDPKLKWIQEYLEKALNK
Chain of CCL2_HUMAN (P13500 24-99 limits assumed): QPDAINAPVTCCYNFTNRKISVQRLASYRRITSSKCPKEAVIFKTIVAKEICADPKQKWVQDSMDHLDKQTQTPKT

Row | Binder | binding result (CXCL12_HUMAN) | binding result (CXCL13_HUMAN) | binding result (CXCL14_HUMAN) | binding result (CXCL8_HUMAN [1]) | % cells over threshold fluorescence (CXCL7_HUMAN) | % cells over threshold fluorescence (CXCL10_HUMAN [2]) | Kd (CCL5_HUMAN) | Kd (CCL8_HUMAN [5]) | Kd (CXCL1_HUMAN) | Kd (CXCL8_HUMAN [6]) | Kd (CXCL10_HUMAN [7]) | Kd (CCL2_HUMAN) | other results
1 | P1126_AMBCA (other) KPQILQRTDKSTDSEWDPQTCPETCIPSKNITCSDGCVCVKLGEEEEGTCFNMTGVDWLGSPSDD | no binding (tested: 300 nM) | no binding (tested: 300 nM) | no binding (tested: 300 nM) | no binding (tested: 300 nM) | 74% | 66% | – | – | – | – | – | – | –
2 | P672:EVA1 (P672_RHIPU (1-44): EVA1_RHISA (29-94)) (designed binder) VCEVSEQEGVGEDNATEDEDYEDFFKPVTCYFANSTVGPLRPPNCKQDCNGTTETAPNGTRCFSIGDEGLRRMTANLPYDCPLGQCSNGDCIPKETYEVCYRRNWRDEKN | – | – | – | – | – | – | – | – | – | – | – | – | Kd (CCL8_HUMAN [3]): 223 nM; IC50, CCL8 induced THP-1 monocyte cell migration (CCL8_HUMAN [4]): 48 nM
3 | P1821 (P1142:G4S:P1156:G4S:P991) (designed binder) KPQILQRTDHSTDSDWDPQMCPETCNPSKNISCSSECLCVTLGGGDETGTCFNMSGVDWLGHAQASDGHNDGGGGGSADDDNELFTVQYCGMNCTKDEGGTWTGCTGKKEGCKCYHESGKNYGLCLSTEYTDFSQYGNPSDSEIEAAKPKRSDTLSHGGGGSENGEGTTQPDYDNSTDYYNYEDFKCTCPAPHLNNTNGTVMKPIGCYYTCNVTRCTAPDTYPCYNLTEHQAKNLTTSPTTLCAVGNCDHGICVPNGTKELCFKAPNLEE | – | – | – | – | – | – | 0.001 nM | 14.1 nM | 1.86 nM | 1.55 nM | 1.44 nM | 11.8 nM | –
4 | Evasin-1 peptide variant K92E encoded by EZ406190.1 (other, also called Evasin-1 (EZ406190.1)) EDDEDYGDLGGCPFLVAENKTGYPTIVACKQDCNGTTETAPNGTRCFSIGDEGLRRMTANLPYDCPLGQCSNGDCIPKETYEVCYRRNWRDEKN | – | – | – | – | – | – | – | – | – | – | – | – | binding result (CCL8_HUMAN [3]): no binding (tested: 300 nM)
5 | P1142_AMBCA (other) KPQILQRTDHSTDSDWDPQMCPETCNPSKNISCSSECLCVTLGGGDETGTCFNMSGVDWLGHAQASDGHNDG | no binding (tested: 300 nM) | no binding (tested: 300 nM) | no binding (tested: 300 nM) | no binding (tested: 300 nM) | 71% | 80% | – | – | – | – | – | – | binding result (CXCL9_HUMAN): no binding (tested: 300 nM); IC50, activated mouse T cell migration (mouse CXCL10): 3.37 nM; IC50, mouse bone marrow granulocyte cell migration (mouse CXCL1): 2.15 nM; IC50, mouse bone marrow granulocyte cell migration (mouse CXCL2): 0.66 nM
6 | P1820 (P1142:G4S:P1156:G4S:P467) (designed binder) KPQILQRTDHSTDSDWDPQMCPETCNPSKNISCSSECLCVTLGGGDETGTCFNMSGVDWLGHAQASDGHNDGGGGGSADDDNELFTVQYCGMNCTKDEGGTWTGCTGKKEGCKCYHESGKNYGLCLSTEYTDFSQYGNPSDSEIEAAKPKRSDTLSHGGGGSAEKSLDSDSSGEDYELWTQGCPFLVAENRTGFGTTVSCQHNCNGAIEKVPEGEPCYTIGEDGLGRMKLNLPYNCSLGECSGGVCVPNGRSDVCFKRTWEENNKAMA | – | – | – | – | – | – | 0.41 nM | 18.2 nM | 1.12 nM | 1.11 nM | 1.01 nM | 2.86 nM | –
